# Experiment: yeast display, Sf9 membrane polyspecificity reagent, FACS + sequencing; frameworks hold sequencing errors
# Summary of the method: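 After 36–48 hours of galactose induction, yeast (Saccharomyces cerevisiae BJ5465) displaying a synthetic nanobody library were stained at 4 °C for 1 hour with 10% biotinylated, detergent-solubilized Sf9 membrane reagent. Streptavidin microbeads enriched the stained cells before FACS sorting into low and high (top ~1%) gates on anti-HA and streptavidin fluorescence. Each clone's polyreactivity label reflects its gate of origin.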
row,Sequence,polyreactivity (PSR sort gate)
1,QVQLVESGGGLVQAGGSLRLSCAASGRTFRFNAMGWYRQAPGKEMELVAAISSGGRTYYADSVKGRFTISRDNAKNTVYLQMNSLKPEDTAVYYCAARVFVRHPHQVAYDYWGQGTQVTVSS,high polyreactivity
2,QVQLVESGGGLVQAGGSLRLSCAASGRTFRFYAMGWYRQAPGKEREFVAAISRSVGSTYYADSVKGRFTISRDNAKNTVDLQMNSLKPEDTAVYYCNADYRSRYVEYDYWGQGTQVTVSS,high polyreactivity
3,QVQLVESGGGLVQAGGSLRLSCAASGRTFRFYTMGWYRQAPGKERELVAAIYWRGSSTYYADSVKGRFTISRDNAKNTVYLQMNSLKPEDTAVYYFAKKSYANEYDYWGQGTQVTVSS,high polyreactivity
4,QVQLVESGGGLVQAGGSLRLSCAASGRTFRGNDMGWYRQAPGKERELVATITRNGGSTRYADSVKGRFTISRDNAKNTVYLQMNSLKPEDTAVYYCNARSRYFGYDYWGQGTQVTVSS,high polyreactivity
5,QVQLVESGGGLVQAGGSLRLSCAASGRTFRGYAMGWSRQAHGKEREFVATISSRGGSTYYADSVKGSFTISRDNAKHTVYLQMNSLKPEDTAVYYCAAKRRAKTGYRYDYWGQGTQVTLSS,high polyreactivity
6,QVQLVESGGGLVQAGGSLRLSCAASGRTFRGYAMGWYRQAPGKERELVATISSRGGSTYYADSVKGRFTISRDNAKNTVYLQMNSLKPEDTAVYYCAARYIGYSSYKYDYWGQGTQVTVSS,high polyreactivity
7,QVQLVESGGGLVQAGGSLRLSCAASGRTFRGYVMGWYRQAPGKERELVAAISKSGGSTYYADSVKGRFTISRDNAKNTVYLQMNSLKPEDTAVYYCSKNYRYSVFYDGFDYWGQGTQVTVSS,low polyreactivity
8,QVQLVESGGGLVQAGGSLRLSCAASGRTFRINTMGWYRQAPGKERELVATITGSGGSTYYADSVKGRFTISRDNAKNTVYLQMNSLKPEDTAVYYCAVRWYDQVSRRGIGYYWGQGTQVTVSS,low polyreactivity
9,QVQLVESGGGLVQAGGSLRLSCAASGRTFRIYAMGWYRQAPGKERELVAAINSGGTTNYADSVKGRFTISRDNAKNTVYLQMISLKPEDTAVYYCAVRYSKTLSHFSYDYWGQGTQLTVSS,low polyreactivity
10,QVQLVESGGGLVQAGGSLRLSCAASGRTFRIYAMGWYRQAPGKERELVAAITKRGGITYYADSVKGRFTISRDNAKNTVYFQMNSLKPEDTAVYYCNKLPEPYDYDYWGQGTQVTVSS,high polyreactivity
11,QVQLVESGGGLVQAGGSLRLSCAASGRTFRIYAVGWYRQAPGKERELVATIDSGGSTNYADSVKGRFTISRDNAKNTVYLQMNSLKPVDTAVYYCNAEDKPWYYLAGQAEYDSWGQGTQVTVSS,low polyreactivity
12,QVQLVESGGGLVQAGGSLRLSCAASGRTFRIYSMGWYRQAPGKEREFVAGITRSDGSTYYADSVKGRFTISRDNAKNTVYLQMNSLKPEDTAVYYCNVEPYSHYRRTEDYWGQGTQVTVSS,high polyreactivity
13,QVQLVESGGGLVQAGGSLRLSCAASGRTFRKYAMGWYRQAPGKERELVAAISWSGGSTYYANSVKGRFTISRDNAKNTVYLPMNSLKPVDTAVYYCAAVPVHTGSLYWGFTTGYDYWGQGTQVTVSS,low polyreactivity
14,QVQLVESGGGLVQAGGSLRLSCAASGRTFRKYAMGWYRQAPGTERELVAAISWSGGSTYYANSVKGRFTISRDNAKNTVYLQMNSLKPEDTAVYYGAAVPVHNGSLYWGFTTGYDYWGQGTQVTVSS,low polyreactivity
15,QVQLVESGGGLVQAGGSLRLSCAASGRTFRLNAMGWYRQAPGKERELVAAITRGGRTNYADSVKGRFTISRDNAKNTVYLQMNSLKPEDTAVYYCAARYVERHTDYYYWGQGTQVTVSS,low polyreactivity
16,QVQLVESGGGLVQAGGSLRLSCAASGRTFRLYAMGWYRQAPGKERELVAAITENGGSTYYADSVKGRFTISRDNAKNTVYLQMTSLKPEDTAVYYCAAKRYSRYNYWGQCTQVTVSS,high polyreactivity
17,QVQLVESGGGLVQAGGSLRLSCAASGRTFRLYAMGWYRQAPGKERELVAAITRGGRTNYADSVKGRFTISRDNAKNTVYLQMNSLKPEDTAVYYCAARYVEGHPDYYYWGQGTQVTVSS,low polyreactivity
18,QVQLVESGGGLVQAGGSLRLSCAASGRTFRLYAMGWYRQAPGKERELVAAITRGGRTNYADSVKGRFTISRDNAKNTVYLQMNSLNPEDTAVYYCAARYVERHTDYYYWGQGTQVTVSS,low polyreactivity
19,QVQLVESGGGLVQAGGSLRLSCAASGRTFRLYAMGWYRQAPGKERELVASISRSVGSTYYADSVKGRFTISRDNAKNTVYLQMNSLKPEDTAVYYCAARSYIPGGWDGAYYYWGQGTQVTVSS,high polyreactivity
20,QVQLVESGGGLVQAGGSLRLSCAASGRTFRLYAMGWYRQATGTETELVAAISSRGGSTYYADSVKGRFTISRDNAKNTVYLQMNSLKPEDTAVYYCAKGLGSGQEIYGYDYWGQGTQVTVSS,high polyreactivity
21,QVQLVESGGGLVQAGGSLRLSCAASGRTFRNAMGWYRQAPGKEREFVATITWSGGSTYYADSVKGRFTISRDNAKNTVYLQMNSLKPEDTAVYYCAAEGRLWDWQRYDYWGQGTQVTVSS,low polyreactivity
22,QVQLVESGGGLVQAGGSLRLSCAASGRTFRNAMGWYRQEPVKEREFVATITWSGGSTYYADSVKGRFTISRDNAKNTVYLQMNSLKPEDTAVYYCAAEGRLWDWQRYDYWGQGTQVTVSS,low polyreactivity

row,Sequence,polyreactivity (PSR sort gate)
1,QVQLVESGGGLVQAGGSLRLSCAASGRTFRPNAMGWYRQAPGKERELVASITRRGGTTYYADSVKGRFTISRDNAKNTVYLQMYSLKPEDSAVYYCNAPPGYSSTRNGYWGQGTQVTVSS,high polyreactivity
2,QVQLVESGGGLVQAGGSLRLSCAASGRTFRPYAMGWYRQAPGKEREFVARITWSGGTTYYADSVKGRFTISRDNAKNTVYLQMNSLKPEDTAVYYCAARVSRQTPLISYNYWGQGTQVTVSS,low polyreactivity
3,QVQLVESGGGLVQAGGSLRLSCAASGRTFRPYAMGWYRQAPGKERELVAAIDSSGTSTYYADSVKGRFTISRDNAKNTVYLQMNSLKPEDTAVYYCNTSLKRRRLRFNYWGQGTQVTVSS,low polyreactivity
4,QVQLVESGGGLVQAGGSLRLSCAASGRTFRPYAMGWYRQAPGKERELVAVITSGDSTSYADSVKGRFTISRDNAKNTVYLQMNSLKPEDTAVYYCAADSYSGYNYWGQGTQVTVSS,low polyreactivity
5,QVQLVESGGGLVQAGGSLRLSCAASGRTFRQYAMGWYRQAPGKERELVAAISSSGGRTYYADSVKGRFTISRDNAKNTVYLQMNSLKPEDTAVYYCNAARYSYCFDSWGQGTQVTVSS,high polyreactivity
6,QVQLVESGGGLVQAGGSLRLSCAASGRTFRQYAMGWYRQAPGKERELVATISGGGGNTYYADSVKGRFTISRDNAKNTVYLQMNSLKPEDTAVYYCAARRRDRPVRGYDYWGQGTQVTVSS,high polyreactivity
7,QVQLVESGGGLVQAGGSLRLSCAASGRTFRRNAMAWYRKAPGKERELVAAISGGGSTNYADSVKGRFTISRDNAKNTVYLQMNSLKPEDTAVYYCNKRGTIWSGFWGQGTQVTVSS,high polyreactivity
8,QVQLVESGGGLVQAGGSLRLSCAASGRTFRRNAMGSYRQAPGKERELVATITGGGTNYADSVKGRFTISRDNAKNTVYLQMNSLKPEDTAVYYCAVGTRFYVPRRFDYWGQGTQVTVSS,high polyreactivity
9,QVQLVESGGGLVQAGGSLRLSCAASGRTFRRNAMGWYRQAPGKERELVAAIRWSSGSTYYADSVKRRFTISRDNAKNTVYLQMNSLKPEDTAVYYCAKRQWGGRESFDYWAQGTQVTVSS,low polyreactivity
10,QVQLVESGGGLVQAGGSLRLSCAASGRTFRRNAMGWYRQAPGKERELVAAITRSGGSTYYADSVKGRFTISRDNAKNTVYLQMNSLKPEDTAVYYCAAGTYVGLKTQYDYWGQGTQVTVSS,high polyreactivity
11,QVQLVESGGGLVQAGGSLRLSCAASGRTFRRNAMGWYRQAPGKERELVADISNGDSTKYADSVKGRFTISRDNAKNTVYLHMNRLKPVDTAVYYCNAQRYRVVVYNSHGWQTRNYWGQGTQVTVSS,low polyreactivity
12,QVQLVESGGGLVQAGGSLRLSCAASGRTFRRYAMGWSRQAPGKERELVATISSGGSTNYADSVKGRFTISRDNAKNTVYLQMNSLKPEDTAVYYCKARGRSTVTYGYWGQGTQVTVSS,high polyreactivity
13,QVQLVESGGGLVQAGGSLRLSCAASGRTFRRYAMGWYRQAPGKERELVAAISFGGRTYYADSVKGRFTISRDNAKNTVYLQMNSLKPEDTAVYYCAVRSYDQLIVPRDYWGQGTQVTVSS,high polyreactivity
14,QVQLVESGGGLVQAGGSLRLSCAASGRTFRRYAMGWYRQAPGKERELVAAISRNGGSTYYADSVKGRFTISRDNAKNTVYLQMNSLKPEDTAVYYCNAVTYGSYYYWGQGTQVTVSS,high polyreactivity
15,QVQLVESGGGLVQAGGSLRLSCAASGRTFRRYAMGWYRQAPGKERELVAGISRSGVSSYYADSVKGRFTISRDNAKNTVYLQMNSLKPEDTAVYYCATRYVPTLRSSGDYWGQGTQVTVSS,high polyreactivity
16,QVQLVESGGGLVQAGGSLRLSCAASGRTFRRYAMGWYRQAPGKERELVATITNAGSTYYADSVKGRFTISRDNAKNTVYLQMNSLKPEDTAVYYCAARVPYISDYWGQGTQVTVSS,low polyreactivity
17,QVQLVESGGGLVQAGGSLRLSCAASGRTFRRYAMGWYRQAPGKERELVATITNAGSTYYADSVKGRFTISSDNAKNTVYLQMNSLKPEDTSVYYCAARVPYKSDYWGQGTQVTVSS,low polyreactivity
18,QVQLVESGGGLVQAGGSLRLSCAASGRTFRRYAMGWYRQAPGKERELVATITSNGGSTYYADSVKGRFTISRDNAKNTVYLQMNSLKPEDTAVYYCARDLTYYRSRYDYWGQGTQVTVSS,high polyreactivity
19,QVQLVESGGGLVQAGGSLRLSCAASGRTFRRYTMGWYTQAPGKVRELVAAITTSGGSTYYADSVKGRFTISRDNAKHTVYLQMNSLKPEDTAVYYCAATRRYSGDFWGQGTQVTVSS,high polyreactivity
20,QVQLVESGGGLVQAGGSLRLSCAASGRTFRRYVMGGYRQAPGKERELVATITSGGRTNYADSVKGRFTISRDNAKNTVYLQMNSLKPEDTAVYYCNAVRIGLRYYYWGQGTQVTVSS,low polyreactivity
21,QVQLVESGGGLVQAGGSLRLSCAASGRTFRRYVMGWYRQAPGKERELVAAIRWTGGSTYYADSVKGRFTISRDIAKNTVYLQMNSLKPEDTAVYYWAASSYICYGYWGQGTQVTVSS,high polyreactivity

# Reference: the nanobody polyreactivity screen of Harvey et al. (2022)
